Data: publication PMC10556103, “Autoantibody binding and unique enzyme-substrate intermediate conformation of human transglutaminase 3” (Nature Communications, 2023)

What was measured:
Experiment in all cases: crystal structure; TG3 form mixed with Fab DH63-B02 at 1:1.1 molar ratio, complex purified by SEC; crystals in 0.1 M HEPES-MOPS pH 7.1, 16-22% ethylene glycol, 8-11% PEG 8000, 6-10 mM CaCl2, 3-10 mM MgCl2; three Ca2+ bound
Settings in all cases: both partners purified
[1] = target: T1, N-terminal and core domains (N-core) of cleaved TG3 (Homo sapiens, UniProt Q08188)
T1 construct: human transglutaminase 3, N-terminal and catalytic core domains (N-core, 51 kDa) left by cleavage in the loop 461-473; also called catalytic core domain; catalytic domain; source: Sf9 insect cells, purified (Ni-NTA); cleaved with dispase I or cathepsin L, SEC
T1 sequence (Q08188 whole entry, the tested form may be a part): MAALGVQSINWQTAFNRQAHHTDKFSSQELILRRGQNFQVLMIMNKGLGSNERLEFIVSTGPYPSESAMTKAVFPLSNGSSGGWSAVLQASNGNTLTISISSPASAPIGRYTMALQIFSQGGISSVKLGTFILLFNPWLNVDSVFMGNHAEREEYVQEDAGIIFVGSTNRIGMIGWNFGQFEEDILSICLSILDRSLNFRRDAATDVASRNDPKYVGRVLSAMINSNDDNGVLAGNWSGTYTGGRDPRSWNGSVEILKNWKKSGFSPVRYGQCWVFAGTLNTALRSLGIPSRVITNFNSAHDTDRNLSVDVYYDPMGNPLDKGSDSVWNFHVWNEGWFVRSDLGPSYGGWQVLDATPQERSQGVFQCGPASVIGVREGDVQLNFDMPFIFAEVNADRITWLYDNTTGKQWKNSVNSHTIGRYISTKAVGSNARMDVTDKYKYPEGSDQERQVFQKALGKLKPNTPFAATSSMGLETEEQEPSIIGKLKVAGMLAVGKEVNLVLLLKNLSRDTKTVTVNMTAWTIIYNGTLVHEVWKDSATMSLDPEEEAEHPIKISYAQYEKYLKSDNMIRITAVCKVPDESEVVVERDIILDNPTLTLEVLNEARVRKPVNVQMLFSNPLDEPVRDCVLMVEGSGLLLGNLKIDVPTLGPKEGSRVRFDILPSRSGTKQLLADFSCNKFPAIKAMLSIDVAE

[2] = target: T2, zymogen transglutaminase 3 (TG3), human recombinant (Homo sapiens, UniProt Q08188)
T2 construct: human transglutaminase 3, uncleaved zymogen (79 kDa), with N-terminal, catalytic core, C1 and C2 domains; the loop 461-473 is intact; also called TG3 zymogen; zymogen TG3; source: Sf9 insect cells, purified (Ni-NTA)
T2 sequence (Q08188 whole entry, the tested form may be a part): as above

[3] = target: T3, Z-DON-associated TG3 without C1C2 (enzyme-substrate intermediate conformer) (human, UniProt Q08188, Cys273 alkylated by Z-DON (Z-DON-Val-Pro-Leu-OMe))
T3 construct: human transglutaminase 3, N-terminal and catalytic core domains (N-core, 51 kDa) left by cleavage in the loop 461-473; TG3 was His-tagged before cleavage; The cleavage sites of dispase and cathepsin L may differ; also called cleaved TG3 + Z-DON; source: Sf9 insect cells, purified (Ni-NTA); cleaved with dispase I or cathepsin L, incubated with Z-DON, SEC
T3 sequence (Q08188 2-461): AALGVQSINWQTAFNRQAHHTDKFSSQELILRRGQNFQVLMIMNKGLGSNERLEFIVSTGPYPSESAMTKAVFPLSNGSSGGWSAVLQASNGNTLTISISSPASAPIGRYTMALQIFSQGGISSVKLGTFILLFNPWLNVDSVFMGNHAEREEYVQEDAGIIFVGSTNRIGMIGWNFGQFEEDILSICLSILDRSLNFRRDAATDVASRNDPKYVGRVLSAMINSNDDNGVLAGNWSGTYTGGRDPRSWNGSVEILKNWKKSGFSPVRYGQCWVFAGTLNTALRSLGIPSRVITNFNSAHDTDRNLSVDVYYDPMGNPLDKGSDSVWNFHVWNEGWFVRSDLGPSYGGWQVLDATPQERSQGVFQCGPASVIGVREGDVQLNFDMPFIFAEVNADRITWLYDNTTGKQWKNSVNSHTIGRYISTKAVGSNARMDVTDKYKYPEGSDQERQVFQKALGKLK

[4] = target: T4, dispase-cleaved TG3 (N-terminal and core domains with C1C2 non-covalently associated) (Homo sapiens, UniProt Q08188)
T4 construct: human transglutaminase 3, N-terminal and catalytic core domains (N-core, 51 kDa) left by dispase cleavage in the loop 461-473; human transglutaminase 3, the two C-terminal beta-barrel domains C1C2 (26 kDa) left by dispase cleavage in the loop 461-473; TG3 was His-tagged before cleavage; source: Sf9 insect cells, purified (Ni-NTA); cleaved with dispase I, SEC
T4 sequence (Q08188 whole entry, chain 1 of 2, the tested form may be a part): as the sequence (Q08188 whole entry, the tested form may be a part) above
T4 sequence (Q08188 whole entry, chain 2 of 2, the tested form may be a part): as the sequence (Q08188 whole entry, the tested form may be a part) above

Measured: binding result

B1: Fab fragment of the anti-TG3 antibody DH63-B02 (Fab, V domains shown)
VH: EVQLVESGGGLVQPGRSLRLSCTASGFTFDDYAMHWVRQAPGKGLEWVSRISWNSRSIAYADSVKGRFTISRDSAKNSLYLQMNSLRTEDTALYYCAKDHYLGSDSYGMDVWGQGTTVTVSS
VL: NFMLTQPHSVSESPGKTVTISCTRSSGSIDSNYVQWYQQRPGSAPTIVIHEDNQRPSGVPDRFSGSIDTSSNSASLTISGLKTEDEADYYCQSYDPSNVVFGGGTKLTVL
notes: Fab heavy chain of the human antibody DH63-B02 from a dermatitis herpetiformis patient; Fab light chain of DH63-B02, purified on a resin for human lambda light chains; also called Fab DH63-B02; the Fab
binds: all assays above
